# Data reported in PMC9776105.
# Biological target: single chain variable fragment (scFv) from the CR3022 antibody with a cysteine-containing linker
# Test: SPR
substance,measurement,value
Spike Receptor Binding Domain SARS-CoV-2 (from UniProt P0DTC2) (domain or fragment),SPR response in the specificity test,4.22 ru
same,change in Resonance Unit at 50 ng/mL RBD,1.13 RU
same,change in Resonance Unit at 100 ng/mL RBD,3.01 RU
same,change in Resonance Unit at 150 ng/mL RBD,3.74 RU
same,change in Resonance Unit at 200 ng/mL RBD,3.98 RU
